# Experimental data published in patent US5650301A, “Hirudin HV2 having a SN7LYS substitution, method of making, and method of use” (Transgene S.A., priority 1986, dated 1997).
# B1: ILE THR TYR THRASP CYS THR GLU SER GLY GLN ASN LEU CYS LEU CYS GLU GLY SER ASN VAL CYS GLY LYS GLY ASN LYS CYS ILE LEU GLY SER ASN GLY LYS GLY ASN GLN CYS VAL THR GLY GLU GLY THR PRO LYS PRO GLU SER … (protein)
# chain: ITYTDCTESGQNLCLCEGSNVCGKGNKCILGSNGKGNQCVTGEGTPKPESHNNGDFEEIPEEYLQ
# modifications: printed: ILE THR TYR THRASP CYS THR GLU SER GLY GLN ASN LEU CYS LEU CYS GLU GLY SER ASN VAL CYS GLY LYS GLY ASN LYS CYS ILE LEU GLY SER ASN GLY LYS GLY ASN GLN CYS VAL THR GLY GLU GLY THR PRO LYS PRO GLU SER HIS ASN ASN GLY ASP PHE GLU GLU ILE PRO GLU GLU TYR LEU GLN
# notes: recombinant hirudin HV2 variant in which the Asn^47 is replaced by a Lys, produced in yeast
# Assays:
# hemorrhage in rabbits = conditions: rabbit, in vivo
# [1] = system: venous thrombosis in rabbits; test: Wessler's model in rabbits (thromboplastin as thrombogenic agent); format: in vivo, rabbit
# Protocol: (§1) e) The antithrombotic activity of the two variants of hirudin and of standard heparin is studied in Wessler's rabbit and rat model, with thromboplastin as thrombogenic agent, and in the model of stasis in rabbits (Fareed). The compounds are administered by continuous perfusion in rabbits and by i.v. bolus in rats.
# Male New Zealand rabbits weighing 2.5 to 3 kg were used in this study. After anesthesia by intravenous injection of pentobarbital sodium (30 mg/kg), the left carotid was cannulated and the two jugular veins were isolated; two slack ligatures were placed on each of them at a distance of 2.5 cm from one another. The rabbits then received either physiological saline or solutions of hirudin or heparin in continuous perfusion for 30 minutes at a flow rate of 2.5 ml/hour. Two minutes before the end of the perfusion, arterial blood samples were drawn in order to determine the plasma levels of the anti-coagulants. One minute before the end of the perfusion, human thromboplastin (Manchester Comparative Reagents Ltd), standardized according to M. Buchanan's procedure, was injected at a dose of 600 ug/kg during exactly 30 seconds into the aorta via the carotid. Thirty seconds later the perfusion was stopped and blood stasis was produced by tightening the ligatures on the two venous segments for 15 minutes. […]
# [2] = system: venous thrombosis in rats; test: Wessler's model in rats; format: in vivo; conditions: RAT i.v. bolus, -5 min 40 s before stasis
# Protocol: as §1
# Male (CD-COBS) Sprague-Dawley rats weighing approximately 300 g were used. […] Two flexible ligatures were positioned 0.7 cm apart.
# The test products, diluted in physiological saline, were injected in an i.v. bolus at 1 ml/kg, 5 min 40 s or 1 min (heparin) before the production of venous stasis. Forty seconds before this stasis, a thrombogenic agent (rabbit thromboplastin, E. Dade) was injected at a dose of 25 mg/ml/kg into the vein of the penis in the space of 30 seconds, measured very exactly. Ten seconds after the end of the injection, stasis was established by tightening the two ligatures, first the proximal and then the distal. The stasis was maintained for 10 minutes, and the thrombus was then removed, immersed in a 0.38% strength citrate solution, dried with general-purpose absorbent paper and weighed on the following day after drying for one hour at […].
# thrombin [3] = biological target: T1, thrombin (Homo sapiens, UniProt P00734); test: Specific antithrombin activity, inhibition of proteolytic activity of thrombin on chromozyme; format: biochemical; set-up: The specific antithrombin activity (human and bovine thrombin) of the two recombinant hirudins
# Protocol: (§2) a) The specific antithrombin activity (human and bovine thrombin) of the two recombinant hirudins in physiological saline is determined on the basis of the inhibition of the proteolytic activity of thrombin on chromozyme.
# (§3) a) For a preparation of stock solution at a concentration of 1 mg/ml, the specific antithrombin activity of the two variants of hirudin with respect to human and bovine thrombins is expressed in Table 1 below: […]
# bleeding time in rats = conditions: rat, in vivo
# rat and rabbit plasma = test: Anticoagulant activity in vitro in plasma, prolongation of the thrombin time; conditions: higher concentrations, compared with rHV2
# Protocol: (§4) b) The anticoagulant activity of the two hirudins is compared in vitro in rat and rabbit plasma in terms of prolongation of the thrombin time, and the anti-IIa effect is measured chromogenically.
# [4] = system: residual thrombin in the rat and rabbit plasma; test: Anti-IIa effect in plasma, residual thrombin by chromogenic substrate; format: biochemical; conditions: above 60 ATU/ml, compared with rHV2
# Protocol: as §4
# bovine thrombin = biological target: T2, bovine thrombin (Bos taurus, UniProt P00735); test: Specific antithrombin activity, inhibition of proteolytic activity of thrombin on chromozyme; format: biochemical; conditions: stock solution 1 mg/ml in physiological saline
# T2 construct: The specific antithrombin activity (human and bovine thrombin) of the two recombinant hirudins
# Protocol: as §2, §3
# [5] = system: thrombosis by blood stasis in rabbits; test: Model of thrombosis by blood stasis in rabbits; format: in vivo; conditions: RABBIT i.v. perfusion
# Protocol: as §1
# Male New Zealand rabbits weighing 2.5 to 3 kg were used in this study. After intravenous anesthesia with pentobarbital sodium (30 mg/kg), the left carotid was cannulated and the two jugular veins were isolated; two slack ligatures were placed on each of them, at a distance of 2.5 cm from one another. The rabbits then received either physiological saline or solutions of hirudin or heparin in continuous perfusion for 30 minutes, at a flow rate of 2.5 ml/hour. Two minutes before the end of perfusion, arterial blood samples were drawn in order to determine the plasma levels of the anticoagulants. At the same time as the perfusion was stopped, stasis was established by tightening the four ligatures (first the proximal and then the distal). The stasis was maintained for 2 hours, the jugulars were then opened and the thrombi extracted, rinsed in physiological saline and weighed after blotting with filter paper.
# thrombin [6] = biological target: T1, thrombin; test: Kinetics of inhibition of human thrombin by purified hirudin variants (chromozyme PL); format: biochemical; set-up: The specific antithrombin activity (human and bovine thrombin) of the two recombinant hirudins
# Source text: To study the kinetics of inhibition of thrombin by these variants, the theory of high affinity inhibitors, as described in J. W. WILLIAMS and J. F. MORRISON Methods in Enzymology 63 pp. 437-467, 1979, is used, since hirudin is a reversible inhibitor of thrombin.
# The variants of hirudin used are purified to 95% and the Sigma pure human thrombin has a percentage activity, measured by titration of the active site, which is above 92%. The concentration of human thrombin is the same for all the measurements, namely 5.5×10^-9 M. The medium is an 0.05M sodium PIPES buffer, pH 7.9, 0.18M KCl and 0.1% PEG at 37° C. The thrombin substrate is Boehringer chromozyme PL. A preincubation time of 2 minutes is observed for the thrombin and hirudin, and the reaction is then initiated with the substrate.
# The following table summarizes the values determined experimentally for the quantity of hirudin required for a 95% inhibition of the same quantity of human thrombin (5.5×10^-9 M).
# thrombin [7] = biological target: T1, thrombin; test: Inhibitory effect of crude yeast culture supernatants on thrombin activity (chromozyme TH); format: biochemical; conditions: yeast culture supernatants after 48 h, compared with native HV2 (FIG. 2)
# Protocol: 20 ml of culture (YNBG+0.5% casamino acids) at OD660 0.02 were seeded with each strain. After 48 h of agitation at 30° C. the cultures were centrifuged (5000 rpm, 5 min) and the supernatants assayed. A culture of TGY1sp4 pTG881 (plasmid not carrying the coding sequence for HV2) was used as a control.
# The activity of the crude supernatants is measured in terms of their inhibitory effect with respect to thrombin activity (proteolytic activity on a synthetic substrate, chromozyme TH--Boehringer Mannheim).
molecule,measurement,setting,value
B1,risk of hemorrhage,hemorrhage in rabbits,less than those in animals treated with standard heparin
same,"Antithrombotic effects, WESSLER",[1]; RABBIT i.v. perfusion,20 µg/kg/h
same,antithrombotic activity,"[1]; continuous perfusion in rabbits, compared with rHV2 and heparin",superior to those of rHV2 and heparin
same,"Antithrombotic effects, WESSLER",[2],160 µg/kg
same,"specific antithrombin activity, results expected for human thrombin",thrombin [3]; expected values,"16,000 ATU/mg"
same,specific antithrombin activity for human thrombin,thrombin [3]; stock solution 1 mg/ml in physiological saline,"19,000 ATU/mg"
same,specific antithrombin activity,"thrombin [3]; summary value of the text, identical for the human and bovine thrombins","~19,000 ATU/mg"
same,prolongation of the bleeding time,bleeding time in rats,less than those in animals treated with standard heparin
same,anticoagulant activity determined in terms of the thrombin time,rat and rabbit plasma,markedly superior
same,further neutralizing the traces of residual thrombin,[4],more effective
same,specific antithrombin activity for bovine thrombin,bovine thrombin,"19,200 ATU/mg"
same,"Antithrombotic effects, STASIS",[5],47 µg/kg/h
same,Quantity for attaining 95% inhibition of thrombin,"thrombin [6]; human thrombin 5.5×10^-9 M, PIPES pH 7.9, 37° C., chromozyme PL, 2 min preincubation",7.6 10^-9 M
same,fold less hirudin than HV2 required for inhibiting the same quantity of human thrombin,thrombin [6]; relative to hirudin HV2,approximately 4 fold
same,inhibitory effect of crude supernatants with respect to thrombin activity,thrombin [7],at least equal to that of native HV2
